Reference: US9708383 (Novo Nordisk, dated 2017)
*1 amine or outer side, *2 acyl side, *3 side chain or, on linkers, in order; H or OH if unused. Where no end group is shown, it is not given here. Side-chain parts run from the residue outwards. [ ]: non-standard residue; d: D form. The star is where a group is joined. 9‑(4-carboxyphenoxy)nonanoyl = O=C(O)c1ccc(OCCCCCCCCC(=O)*)cc1; Decanoyl(10-(4-HOOC-PhO)) = O=C(O)c1ccc(OCCCCCCCCCC(=O)*)cc1; d(γGlu) = O=C(O)[C@@H](CCC(=O)[*:2])N[*:1]; C16 diacid = O=C(O)CCCCCCCCCCCCCCC(=O)*; γGlu = O=C(O)[C@H](CCC(=O)[*:2])N[*:1]; Desaminohistidyl = O=C(CCc1c[nH]cn1)*; Hexanoyl(6-Ph) = O=C(CCCCCc1ccccc1)*; C12 diacid = O=C(O)CCCCCCCCCCC(=O)*; 13‑carboxytridecanoyl = C14 diacid; Butanoyl(4-Ph) = O=C(CCCc1ccccc1)*; 12Ado = NCCCCCCCCCCCC(=O)O; AEEA = NCCOCCOCC(=O)O; Aib = CC(C)(N)C(=O)O; Aoc = NCCCCCCCC(=O)O

Assays:
human GLP-1 receptor [1] = biological target: T1, human GLP-1 receptor (human, UniProt P43220 24-463); assay: SPA, 2.0% vs 0.005% HSA
T1 construct: whole, on cells; Used as purified membranes of the transfected hamster cells, not whole cells; also called hGLP-1

human GLP-1 receptor [2] = biological target: T1, human GLP-1 receptor; assay: SPA, displacement of 125I-GLP-1(7-36)NH2, 0.005% HSA

Binder | ratio IC50 high HSA/IC50 low HSA (human GLP-1 receptor [1]) | IC50 (human GLP-1 receptor [2])
H[Aib]EGTFTSDVSK([AEEA-AEEA-AEEA-AEEA-AEEA-AEEA-γGlu-13‑carboxytridecanoyl])YLEEQAVREFIAK([AEEA-AEEA-AEEA-AEEA-AEEA-AEEA-γGlu-13‑carboxytridecanoyl])LVRGRG [GLP-1 derivative of Example 144: [Aib8,Lys18,Glu22,Val25,Arg26,Lys31,Arg34]-GLP-1-(7-37)-peptide] | > 1 | < 1000 nM
H[Aib]EGTFTSDVSK([AEEA-γGlu-AEEA-C16 diacid])YLEEQAVREFIAK([AEEA-γGlu-AEEA-C16 diacid])LVRGRG [GLP-1 derivative of Example 146: [Aib8,Lys18,Glu22,Val25,Arg26,Lys31,Arg34]-GLP-1-(7-37)-peptide] | > 1 | < 1000 nM
H[Aib]EGTFTSDVSK([AEEA-γGlu-AEEA-13‑carboxytridecanoyl])YLEEQAVREFIAK([AEEA-γGlu-AEEA-13‑carboxytridecanoyl])LVRGRG [GLP-1 derivative of Example 145: [Aib8,Lys18,Glu22,Val25,Arg26,Lys31,Arg34]-GLP-1-(7-37)-peptide] | > 1 | < 1000 nM
HAEGTFTSDVSK([AEEA-AEEA-γGlu-C12 diacid])YLEEQAVREFIAK([AEEA-AEEA-γGlu-C12 diacid])LVG [GLP-1 derivative of Example 11: [Lys18,Glu22,Val25,Arg26,Lys31,Gly34]-GLP-1-(7-34)-peptide] | > 1 | < 1000 nM
H[Aib]EGTFTSDVSK([AEEA-AEEA-γGlu-Aoc-γGlu-Butanoyl(4-Ph)])YLEEQAAK([AEEA-AEEA-γGlu-Aoc-γGlu-Butanoyl(4-Ph)])EFIAWLVQGRG [GLP-1 derivative of Example 109: [Aib8,Lys18,Glu22,Gln34]-GLP-1-(7-37)-peptide] | > 1 | < 1000 nM
H[Aib]EGTFTSDVSK([AEEA-AEEA-γGlu-12Ado-γGlu-2‑phenylacetyl])YLEEQAAK([AEEA-AEEA-γGlu-12Ado-γGlu-2‑phenylacetyl])EFIAWLVQGRG [GLP-1 derivative of Example 128: [Aib8,Lys18,Glu22,Gln34]-GLP-1-(7-37)-peptide] | > 1 | < 1000 nM
H[Aib]EGTFTSDVSK([AEEA-AEEA-γGlu-12Ado-γGlu-Butanoyl(4-Ph)])YLEEQAAK([AEEA-AEEA-γGlu-12Ado-γGlu-Butanoyl(4-Ph)])EFIAWLVQGRG [GLP-1 derivative of Example 113: [Aib8,Lys18,Glu22,Gln34]-GLP-1-(7-37)-peptide] | > 1 | < 1000 nM
HAEGTFTSDVSK([γGlu-AEEA-AEEA-13‑carboxytridecanoyl])YLEEQAAREFIAK([γGlu-AEEA-AEEA-13‑carboxytridecanoyl])LVRGRG [GLP-1 derivative of Example 116: [Lys18,Glu22,Arg26,Lys31,Arg34]-GLP-1-(7-37)-peptide] | > 1 | < 1000 nM
H[Aib]EGTFTSDVSK([AEEA-AEEA-d(γGlu)-γGlu-13‑carboxytridecanoyl])YLEEQAAK([AEEA-AEEA-d(γGlu)-γGlu-13‑carboxytridecanoyl])EFIAWLVQGRG [GLP-1 derivative of Example 105: [Aib8,Lys18,Glu22,Gln34]-GLP-1-(7-37)-peptide] | > 1 | < 1000 nM
H[Aib]EGTFTSDVSK([AEEA-AEEA-γGlu-4‑(4-chlorophenyl)butanoyl])YLEEQAAK([AEEA-AEEA-γGlu-4‑(4-chlorophenyl)butanoyl])EFIAWLVQGRG [GLP-1 derivative of Example 121: [Aib8,Lys18,Glu22,Gln34]-GLP-1-(7-37)-peptide] | > 1 | < 1000 nM
[Desaminohistidyl]AEGTFTSDVSK([AEEA-AEEA-γGlu-13‑carboxytridecanoyl])YLEEQAVREFIAK([AEEA-AEEA-γGlu-13‑carboxytridecanoyl])LVG [GLP-1 derivative of Example 12: [Imp7,Lys18,Glu22,Val25,Arg26,Lys31,Gly34]-GLP-1-(7-34)-peptide] | > 1 | < 1000 nM
H[Aib]EGTFTSDVSK([AEEA-AEEA-γGlu-Hexanoyl(6-Ph)])YLEEQAAK([AEEA-AEEA-γGlu-Hexanoyl(6-Ph)])EFIAWLVQGRG [GLP-1 derivative of Example 123: [Aib8,Lys18,Glu22,Gln34]-GLP-1-(7-37)-peptide] | > 1 | < 1000 nM
HAEGTFTSDVSK([AEEA-AEEA-γGlu-13‑carboxytridecanoyl])YLEEQAVREFIAK([AEEA-AEEA-γGlu-13‑carboxytridecanoyl])LVG [GLP-1 derivative of Example 10: [Lys18,Glu22,Val25,Arg26,Lys31,Gly34]-GLP-1-(7-34)-peptide] | > 1 | < 1000 nM
HSEGTFTSDVSK([AEEA-AEEA-γGlu-13‑carboxytridecanoyl])YLEEQAVREFIAK([AEEA-AEEA-γGlu-13‑carboxytridecanoyl])LVG [GLP-1 derivative of Example 14: [Ser8,Lys18,Glu22,Val25,Arg26,Lys31,Gly34]-GLP-1-(7-34)-peptide] | > 1 | < 1000 nM
HAEGTFTSDVSK([AEEA-AEEA-γGlu-C12 diacid])YLEEQAVREFIAHLVK([AEEA-AEEA-γGlu-C12 diacid]) [GLP-1 derivative of Example 66: [Lys18,Glu22,Val25,Arg26,His31]-GLP-1-(7-34)-peptide] | > 1 | < 1000 nM
HAEGTFTSDVSK([AEEA-AEEA-γGlu-13‑carboxytridecanoyl])YLEEQAVRLFIK([AEEA-AEEA-γGlu-13‑carboxytridecanoyl])WLVG [GLP-1 derivative of Example 53: [Lys18,Glu22,Val25,Arg26,Leu27,Lys30,Gly34]-GLP-1-(7-34)-peptide] | > 1 | < 1000 nM
HAEGTFTSDVSK([γGlu-AEEA-γGlu-13‑carboxytridecanoyl])YLEEQAARK([γGlu-AEEA-γGlu-13‑carboxytridecanoyl])FIAHLVG [GLP-1 derivative of Example 59: [Lys18,Glu22,Arg26,Lys27,His31,Gly34]-GLP-1-(7-34)-peptide] | > 1 | < 1000 nM
HAEGTFTSDVSK([γGlu-AEEA-AEEA-Decanoyl(10-(4-HOOC-PhO))])YLEEQAARK([γGlu-AEEA-AEEA-Decanoyl(10-(4-HOOC-PhO))])FIAHLVG [GLP-1 derivative of Example 49: [Lys18,Glu22,Arg26,Lys27,His31,Gly34]-GLP-1-(7-34)-peptide] | > 1 | < 1000 nM
HAEGTFTSDVSK([AEEA-AEEA-γGlu-13‑carboxytridecanoyl])YLEEQAVREFIK([AEEA-AEEA-γGlu-13‑carboxytridecanoyl])WLVG [GLP-1 derivative of Example 50: [Lys18,Glu22,Val25,Arg26,Lys30,Gly34]-GLP-1-(7-34)-peptide] | > 1 | < 1000 nM
HAEGTFTSDVSK([AEEA-AEEA-γGlu-13‑carboxytridecanoyl])YLEEQAVREFIK([AEEA-AEEA-γGlu-13‑carboxytridecanoyl])HLVG [GLP-1 derivative of Example 52: [Lys18,Glu22,Val25,Arg26,Lys30,His31,Gly34]-GLP-1-(7-34)-peptide] | > 1 | < 1000 nM
HAEGTFTSDVSK([AEEA-AEEA-13‑carboxytridecanoyl])YLEEQAARK([AEEA-AEEA-13‑carboxytridecanoyl])FIAHLVG [GLP-1 derivative of Example 28: [Lys18,Glu22,Arg26,Lys27,His31,Gly34]-GLP-1-(7-34)-peptide] | > 1 | < 1000 nM
HAEGTFTSDVSK([AEEA-AEEA-γGlu-Decanoyl(10-(4-HOOC-PhO))])YLEEQAARK([AEEA-AEEA-γGlu-Decanoyl(10-(4-HOOC-PhO))])FIAHLVG [GLP-1 derivative of Example 30: [Lys18,Glu22,Arg26,Lys27,His31,Gly34]-GLP-1-(7-34)-peptide] | > 1 | < 1000 nM
HAEGTFTSDVSK([AEEA-AEEA-γGlu-9‑(4-carboxyphenoxy)nonanoyl])YLEEQAARK([AEEA-AEEA-γGlu-9‑(4-carboxyphenoxy)nonanoyl])FIAHLVG [GLP-1 derivative of Example 64: [Lys18,Glu22,Arg26,Lys27,His31,Gly34]-GLP-1-(7-34)-peptide] | > 1 | < 1000 nM
HAEGTFTSDVSK([γGlu-AEEA-AEEA-13‑carboxytridecanoyl])YLEEQAARK([γGlu-AEEA-AEEA-13‑carboxytridecanoyl])FIAHLVG [GLP-1 derivative of Example 29: [Lys18,Glu22,Arg26,Lys27,His31,Gly34]-GLP-1-(7-34)-peptide] | > 1 | < 1000 nM
HSEGTFTSDVSK([AEEA-AEEA-γGlu-C12 diacid])YLEEQAVREFIAK([AEEA-AEEA-γGlu-C12 diacid])LVG [GLP-1 derivative of Example 25: [Ser8,Lys18,Glu22,Val25,Arg26,Lys31,Gly34]-GLP-1-(7-34)-peptide] | > 1 | < 1000 nM
HAEGTFTSDVSK([AEEA-AEEA-γGlu-13‑carboxytridecanoyl])YLEEQAAREFIAK([AEEA-AEEA-γGlu-13‑carboxytridecanoyl])LVG (Name prints Lys8, evidently Lys18 (acylation at Nε18)) [GLP-1 derivative of Example 15: [Lys8,Glu22,Arg26,Lys31,Gly34]-GLP-1-(7-34)-peptide] | > 1 | < 1000 nM
H[Aib]EGTFTSDVSK([AEEA-AEEA-γGlu-4‑(4-nitrophenyl)butanoyl])YLEEQAAK([AEEA-AEEA-γGlu-4‑(4-nitrophenyl)butanoyl])EFIAWLVQGRG [GLP-1 derivative of Example 122: [Aib8,Lys18,Glu22,Gln34]-GLP-1-(7-37)-peptide] | > 1 | < 1000 nM
H[Aib]EGTFTSDVSK([AEEA-AEEA-γGlu-Aoc-γGlu-Hexanoyl(6-Ph)])YLEEQAAK([AEEA-AEEA-γGlu-Aoc-γGlu-Hexanoyl(6-Ph)])EFIAWLVQGRG [GLP-1 derivative of Example 127: [Aib8,Lys18,Glu22,Gln34]-GLP-1-(7-37)-peptide] | > 1 | < 1000 nM
